The target of experiment [1] is Pyrococcus furiosus Chaperonin 60 with Ile138, with the last 22 amino acids deleted (PfCD) (Pyrococcus furiosus). In words: SEC.
Experiment [2] has the same target. Description: native gel or EMSA.
In experiment [3] the target is PfCD mutant Ile138His (Pyrococcus furiosus). In words: native gel or EMSA.

Our source for the stoichiometry N values is paper PMC4209464.

For “Pyrococcus furiosus Chaperonin 60 with Ile138, with the last 22 amino acids deleted (PfCD) (domain or fragment)”, the stoichiometry N in experiment [1] and in experiment [2] was 16 throughout.
On to “PfCD mutant Ile138His (domain or fragment)”, for which the stoichiometry N in experiment [3] stood at 16.
